Source: patent US20060281899A1, “Mutants of biotin binding protein” (priority 2002, published 2006)
“And” between values parts separate entries of the source, which are not always exact repeats. Equal entries are not always repeated. Where two headings read alike, the source gives them in different places.

Experiments:
[1] = cited from earlier work; for ΔTm: change in Tm upon biotin addition, previously published values; for DSC Tm (+biotin) / DSC Tm(−biotin): previously published (Nordlund 2003; Gonzalez 1999)
[2] = 2-iminobiotin surface; from Nordlund 2003; read-out: Kd detected from the equilibrium response data; cited from earlier work
[3] = Differential scanning calorimetry of the avidin mutants; type: physicochemical; conditions: for Tm: DSC, 100 mM Na-phosphate buffer pH 7.4
Method: In order to study the thermal stability of the purified avidin mutants, they were subjected to analysis by differential scanning calorimetry. A Nano II differential scanning calorimeter (Calorimetric Science Corporation, Provo, Utah) was used. […] The reference cell was filled with the same buffer that the sample proteins were dissolved in (100 mM Na-phosphate buffer pH 7.4). The thermograms were recorded as a function of temperature, between 25 and 130° C. at a temperature scan rate of 55.6° C./h. The baselines were subtracted and the transition midpoints (Tm) of the samples were calculated using proprietary software provided by the instrument manufacturer.

[4] = IAsys optical biosensor, affinity of avidin and avidin mutants towards 2-iminobiotin; type: binding
Method: (§1) Reversibility of biotin binding was measured for avidin and the mutants with an IAsys optical biosensor (Laitinen, O. H. et al., FEBS Lett 461 (1999), 52-8). Protein samples were allowed to bind to a biotin-aminosilane cuvette in PBS containing 1 M NaCl. After the equilibrium was reached, biotin-containing buffer was added and the dissociation of the proteins was monitored. The affinities of the proteins towards 2-iminobiotin were determined with an IAsys optical biosensor (Marttila, A. T. et al. FEBS Lett 441 (1998), 313-7). Biotin-binding activity of the mutants Avd-ci and Avd-ccci after heat treatment was studied with a microtiter plate assay. Protein samples, 5 μg/ml concentration in PBS, were heated for various time periods at 99.9° C. and then chilled on ice. The samples were transferred to a Nunc Maxisorp-plate and incubated at 37° C. for 2 h. The wells were washed three times with PBS-Tween (0.05% v/v). After that the wells were blocked with PBS containing 1% BSA at 37° C. for 30 minutes and washed again with PBS-Tween. Next, biotinylated alkaline phosphatase (Sigma) in PBS, 1% BSA was added and incubated at 37° C. for one hour. Once again, the wells were washed with PBS-Tween and the PNPP substrate in DEA buffer (1 mg/ml) was applied to the wells. The absorbances at 405 nm were measured after incubation for 45 minutes.

[5] = Microparticle analysis, BF523-biotin binding of protein-coated particles before and after 95° C.; type: physicochemical; conditions: 30 minutes at 95° C., BF523-biotin added after treatment (iv)
Method: Before the analysis, 3.22 μm microparticles with COOH-group/0.852 nm2 (Bangs laboratories, Fishers, Ind., USA) were covalently coated with biotin-binding proteins. Microparticles (1*108 pcs) were washed twice with H20 by sequential centrifuging (5000 g; 3 min) and aspiration, and resuspended in 200 μl PB buffer (50 mM NaH2PO4-HCl, pH 3.0). A solution of biotin binding protein (50 μl, 1 mg/ml or 3 mg/ml, 50 mM Na-acetate pH 4.0) was added while vortexing. The suspension was incubated for 1 h (500 rpm; 23° C.). Particles were washed with PB and with MES buffer (50 mM, pH 5.5) and suspended in MES buffer (200 μl). […] After the last wash particles were suspended in 100 μl volume and concentration of particles was determined with Multisizer 3 Coulter Counter (Beckman Coulter, Fullerton, Calif., USA). […]
Microparticles (5*106 pcs) were suspended in 900 μl of assay buffer and aliquoted in […] PCR-tubes (i-v; 180 μl/aliquot). […] The samples were measured with ArcDia TPX PlateReader (ArcDia Ltd.) (Soini, E., Meltola, N. J., Soini, A. E., Soukka, J., Soini, J. T. & Hanninen, P. E. (2000) Biochem. Soc. Trans. 28, 70-74). […]
The fluorescence emission efficiencies of the BF523-biotin conjugate (200 nM) was determined before and after the incubation (30 min) at 95° C. […]

[6] = tested on: biotinylated alkaline phosphatase; test: Microtiter plate assay, biotin-binding activity after heat treatment at 99.9° C.; type: physicochemical; conditions: 99.9° C. for various time periods
Method: as §1, with “After that the wells were blocked with PBS containing 1% BSA at 37° C. for 30 minutes and washed again with PBS-Tween. Next, biotinylated alkaline phosphatase (Sigma) in PBS, 1% BSA was added and incubated at 37° C. for one hour. Once again, the wells were washed with PBS-Tween and the PNPP substrate in DEA buffer (1 mg/ml) was applied to the wells.” left out
Biotin-binding activity of the proteins after heat treatment was studied with a microtiter plate assay (Nordlund, H. R., Laitinen, O. H., Uotila, S. T., Nyholm, T., Hytönen, V. P., Slotte, J. P. & Kulomaa, M. S. (2003) J. Biol. Chem. 278, 2479-2483). […] The absorbencies at 405 nm were measured after incubation for 45 minutes.

[7] = + biotin, difference in Tm compared to wt avidin + biotin
[8] = + biotin (biotin:avidin molar ratio 3:1)
[9] = without biotin, difference in Tm compared to wt avidin

Substance | ΔTm [1] | ΔH of unfolding ([1]; previously published (Gonzalez 1999)) | DSC Tm (+biotin) [1] | DSC Tm(−biotin) [1] | Kd [2] | ΔTm [3, 7] | Tm [3, 8] | Tm ([3]; without biotin) | Kd [4] | ΔTm [3, 9] | original signal after heat treatment of coated particles [5] | biotin-binding activity after heat treatment [6]
Streptavidin: Bacterial streptavidin (SEQ ID NO 2), literature values [reference compound] | 36.7 °C | 150.3 kcal/mol | 112.2 °C | 75.5 °C |  |  |  |  |  |  |  | 
Avd-nc: Cysteineless avidin mutant C4A, C83Y; intramonomeric disulphide bridges removed | 42.1 °C |  | 118.5 ± 0.1 °C | 76.4 ± 0.4 °C | 25 nM | 0.3 °C | 118.5 ± 0.1 °C | 76.4 ± 0.4 °C | 190 nM |  |  | 
Avd-cci: Avidin mutant D86C, I106C with four intermonomeric disulphide bridges (1-4 and 2-3) | 43.1 °C |  | 117.5 ± 0.1 °C | 74.4 ± 0.1 °C | 94 nM | −0.7 °C | 117.5 ± 0.1 °C | 74.4 ± 0.1 °C | 94 nM | −11.1 °C |  | 
Avd-ci: Avidin mutant I117C with two intermonomeric disulphide bridges (subunits 1-3 and 2-4) | 26.1 °C |  | 124.7 ± 0.5 °C | 98.6 °C and 98.6 ± 0.1 °C | 190 nM | 6.5 °C | 124.7 ± 0.5 °C | 98.6 ± 0.1 °C | 85 nM | 13.1 °C | 35% | remained active, in the sense of binding biotin, longer than the wild-type avidin
